Assay: soluble fraction after stress (log2 fold change); higher = more stays soluble; pooled small domains, quantitative proteomics
Details: stress: pH 4
Procedure, shortened: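 Aggregation propensity is estimated from the fold change in each domain's soluble amount after acid stress. Pooled small-domain libraries were stressed at pH 4, and higher log2 values mean more stayed soluble.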

First: HMRGLFTVYMVGEKASRVGELDEEMVYESRIGDVFALGATSWRIEEITHDRVLVSPAYGQPGRLPFWH
Second: HMRGLGDLEPVDSLGKIRIDDGHMVLAFGRHKGRHLSEVQAEDPRYIHWLLSPKGIEDVEAREKVKVYLEG
The “soluble fraction (log2)” value of the first is lower: -1.72 for the first, -0.136 for the second.

First: HMRGLLSQREHDVLDLVARGFSYGEIARLRSISVSTVQTHIKNLYRKLAVSSRTEAVYEAKQMGI
Second: HMRGLVPEIVGTLEGEIRAGTLAVGQKLPTEAEIMARFDVSRTVVREALSRLQASDLVETRHGIGTFVSAR
The “soluble fraction (log2)” value of the first is lower: -0.755 for the first, 0.163 for the second.

“HMRGPDLSKDFHEYISSQWMFFGRNAYQIAEQINKDTQLMSKYGKTTPSGVHYHIKQIQQEMEN” and “HMRGPPQVLVDVELEDGRVGQIGVRNGDDATELAETFVRAFRLEQSFVGRLANVIQGKIRELLHSQ” are within 0.2 log units of each other in “soluble fraction (log2)” value: -0.984 for the first, -1.17 for the second.

Going from “HMRGSRIFSGDVSPLTLPANSPFFSGYTEFKPGDVYVERSATNIAMWEWKSQPGGYTWVKTADIA” to “HMRGYGDRIRILRERAGITIEQLAERLGVAPYFIRRTELSEVYPTKPYIEALADVLNIDASYLARHI”, the “soluble fraction (log2)” value falls from 0.22 to -0.972.

First: HMRHYVLKENNGVIAIYKVNQENEAVFKENTQIQVQYLPEVDLINLKKGIYAIGEEKLNSILEDF
Second: HMRIDSFEDARRRFEYDYLTRLLKLTQGSVTQAAKLAKRNRTEFYKLLQRHGIEAAHFKPTS
The “soluble fraction (log2)” value of the first is lower: -0.892 for the first, ≥ 0.43 for the second.

Going from “HMRIDVWLAENGFAPSRQKAQDLIAAGRVFQTDPSGRRQKVSKASAAVDPALSPKIEVIPDPE” to “HMRILGIDPGYAITGYSIIDYVGNKFKLIDSGAVLTKAGVSFPLRLTKIYDDLSMIIDEYKPDA”, the “soluble fraction (log2)” value falls from 0.068 to -0.42.

Going from “HMRIPANIAEDIKKLQKKEHHLHHHLGRDPFDDELAKELEWDTEQVSEIRQMIKNPELLEELLEAEREEE” to “HMRITEQRRTLAKLFADTPGYLSPKDVYDYMGRFYPGLSFDTVYRNLRLLDELGVLEQVVFEDGVKFK”, the “soluble fraction (log2)” value rises from -1.2 to -0.677.

Going from “HMRIWTISDLYKNVEDKKVSLAVFSEDNDSNKVNVLDINGEEHSVNLLKADLPTLVDLFRKNDVRFAVRSN” to “HMRIWTPEMIKEYIISSNGKEPLNSHYYSTNHPSIYAAAERIFGSWGNAINAAGLDYNAIRKYK”, the “soluble fraction (log2)” value falls from 0.259 to -0.0687.

Going from “HMRIYFSPSEIGFYHESDKQAYLLAGTWPNDLLEISEKWFLYLLEGQQKGKVITVNDYDQPVLVD” to “HMRIYTKDEYLAELSRYLHKLPQDDYESAMAYFREYFEEAGPENEAQAMRDLGTPKEAASEILQNLLH”, the “soluble fraction (log2)” value rises from -2.28 to -0.162.

Going from “HMRKDYTVLYSAVNAEEATEIVSKLQESGVAYQYKDNGDVLVDKKQVDKVRAQLAQEGYPKS” to “HMRKIEDVLRLHAQGMSTRRIALATGVGKTTVIEYLRRAAVAGLSWPLPEGLDEEALERRVFPPPP”, the “soluble fraction (log2)” value rises from -0.204 to 0.282.

“HMRKIFPFNPNFITDQRGYFLGMSTSEIDRLHHFRAANKWIQSAQEFQVVTKVSNAWLSEFSPYFNFP” and “HMRKKTYEIITDDLRRMIEAGLIRPGEKLGAIDQLAAKYRVGRSTVREALSHLKALGLVESRQGGGTYVTK” are within 0.2 log units of each other in “soluble fraction (log2)” value: 0.298 for the first, 0.109 for the second.

Compared with “HMRKNVAGITPNVYGMGLKDAVYLLENAGYRVKVNGRGNVVRQSINSGTRIIKGQLIILDLD”, “HMRKSNADALDGKTGIVKEEIKTGGYGYVGIDGDMWRSISESGEAIPAGTKVVVISHESIILTVKPA” is higher in “soluble fraction (log2)” value: 0.0848 for the first, ≥ 0.43 for the second.

“HMRKTLASTAYDSIKAGIVSGEINNNLLLSENTLAKILNMSRTPIREAIKRLEAESYLKSVDGVGLIVQE” and “HMRKTLSQEAYEKIKQNLEDGVYQGYINGRQVARDLDIGFTPVREAFLQLQSEGLIRKEDNVGYFV” are within 0.2 log units of each other in “soluble fraction (log2)” value: -0.314 for the first, -0.183 for the second.

Compared with “HMRKTYHVDAYQDDKWWVLQVQEMPNAISQVKSLDQADEWIREAINIVSNEPEDSFDVVIIPV”, “HMRKVTDTHELSSVVKSVIDQWEEKAAEYRAGKSGLLGFFVGEVMKKTGGAADPEAAKSLLQDRLD” is higher in “soluble fraction (log2)” value: -1.54 for the first, -0.285 for the second.

Compared with “HMRKYEAVPASVVPAQIQEYVAKSNFPNQYIRKIERNKYTWEIELSNGLEIKFDRQFNVIGFD”, “HMRLGQLQSVEEPKFIEVHSGKQGDIGEQTIVEYEIDAKYATGDATINLKLLFRDGLFEIYNFNFSSEALL” is lower in “soluble fraction (log2)” value: 0.338 for the first, -0.259 for the second.

First: HMRLNIRTKNNYSYYTIIKDYTNLNGKRTTTIFEKLGNQQQVEERFGKVNTIENIKKYIEELNNE
Second: HMRLPAISYSFARKHGVVLRLDGDRPVASLREGADPAILIEVKRHLDGAMGVEKVSEAAFDQLLSTTYA
The “soluble fraction (log2)” value of the first is higher: 0.22 for the first, -0.436 for the second.

First: HMRLPNGYGSITKLSGKRRKPFMVRITTGYDNEGKQLMSVLGYYATRTEALAVLAEYNKNPYNPI
Second: HMRLPNHYGSVVKLSGKRRRPFMVRGGVYGYDDRGYPQYVIVGYTETREQGLTMLAEYNRNP
The “soluble fraction (log2)” value of the first is higher: 0.109 for the first, -0.319 for the second.

Going from “HMRLPVELTDREVEVLRLLAQAMSNGEIARELYIGEATVKTHVSNVLQKLGARDRVAAVVWAHRYGL” to “HMRLSAADLQSYLKGMDYPASRQDLIAHARGHNAPEEAVATLEQFSDRTYRSAADVSVEFGRE”, the “soluble fraction (log2)” value rises from -1.16 to 0.309.

“HMRLSPTMVETLIAMLNRNAYPAYENNSRTFASLEERGLIQPDIEGNWSLTDTGHQTALKLLK” and “HMRLSVRQRMSDVLGALKTQAFVEFTQLFRPQEGRMGVTVTFSAILELLREGLIEIVQSEPFAPIHVRAGA” are within 0.2 log units of each other in “soluble fraction (log2)” value: 0.0279 for the first, 0.22 for the second.

First: HMRMDKHLWLSLLRLINEGSAEELQTKKDELLQSLERLRITRGPVRGDVLRVVRLIDEELVSRLHLDQR
Second: HMRMTKPLPFDLAAFRNEFGFTKSIIMQEVGVSRHIYDNVERTNATPPEFYDDFVSFFQRHGQ
The “soluble fraction (log2)” value of the first is lower: -0.697 for the first, -0.203 for the second.

Compared with “HMRMTPRQALDDLIREREETYAAVSRLLGRNTAYIQQYIKRGTPARLDQSDIAQLALHFDVPAKLLGGKE”, “HMRMTTEQLMSFLKQHFPQVADNFTVRISDEGRLSVEMPVNDKHLRPGGTVSGPSMFALADVAFYLAILQ” is lower in “soluble fraction (log2)” value: ≥ 0.43 for the first, -0.349 for the second.

First: HMRNERDRQLYAAMEKLKAEYREALYLVYFENMSYRDAAAVMAQTEKQISNLVYRGKQSLKTILEQEGF
Second: HMRNGGHTVYRNNGSLFIVVRDGDKLESVASEFRVSPKKLIKYNDLDIHSNVKTGDMIYIRPKA
The “soluble fraction (log2)” value of the first is lower: -0.867 for the first, -0.124 for the second.

First: HMRNLYEILGVSKDAPQGEIKSAYRKLAKTYHPDLNPNNEKAAELFKEINQAYEVLSDETKRRHYDQFGEA
Second: HMRNMTDYLTIVRAVYGGLSQRQAATTYHVSRNTVSLLIRHAKNQGWLTVEDLSRADAAAFSPA
The “soluble fraction (log2)” value of the first is higher: ≥ 0.43 for the first, -0.0738 for the second.

First: HMRNMVSVLDHIEGIGPKRRQLLYEHYGELEKIKEASVEEMAGLDGMNRPAAEAVYNFFLAQRNL
Second: HMRNSSLQTDLELRAYVIDGLNHFWTPEEIAGRWSLAHPDRPVSFATIYRHIKRKLLPGIEPKTHLRRRGK
The “soluble fraction (log2)” value of the first is lower: -0.308 for the first, ≥ 0.43 for the second.

Compared with “HMRPEARAASLSDEERKIFDYLAANGEKTIDNISVAVKMSAADILKNITLMSAKGLVYMPSAGRYGVKGN”, “HMRPNREKDMADLEKLAPFLLQMLTNYAQMTGDEKPLNAFITRFGYAAQIRDIQDFFMGPWHPA” is lower in “soluble fraction (log2)” value: 0.0795 for the first, -0.24 for the second.

First: HMRPQIAIDAIQALSLIMRTENKEDPTYLESRRVVSDAVAKRLSLNPTDLNRAWSRAPRDHQIAVLSALTQ
Second: HMRPRGTRLPTGWTPSSDALDWTKAEKPGLDPLQTLEKFRDYWTAQPGQKGVKTDWDATWRNWVRREIP
The “soluble fraction (log2)” value of the first is lower: -0.184 for the first, 0.0989 for the second.

“HMRPSGTAGILRYLSSGAIRGIGATTAQRLVSEFGEKTLDVMENEPERVAMLKGISKSKAEDFSLQLKQS” and “HMRPTAWEQVSRHIDQHGSIGNTEVRKAMETENVLAASKQIKKWLEQGLLIILNPTAGTRARRYSKPNM” are within 0.2 log units of each other in “soluble fraction (log2)” value: 0.0932 for the first, -0.0247 for the second.

Compared with “HMRPTDVLNYDESMRILNFSNNRVGFKHLMDAKGIEQVIFKNRKIGYRKSEILALKSELEAEQK”, “HMRPYAYGTGRRKSSTARVHLIPNGSGSITINGRTLDEYFGLETLKLIVRQPLAATETAEKFDVEATVV” is lower in “soluble fraction (log2)” value: -0.0346 for the first, -0.509 for the second.

Compared with “HMRQDEKTLLYWIGAQVKREGKLIKTSTAQYLVEKTGTDMENLEKELEKLFAYTLDEKEITPAAIDEI”, “HMRQIRELFRLKFGSLLPTSDRQIAAQLGVARSTVAEYLERARAAGLSWPLPLDLSDADLEERLFA” is higher in “soluble fraction (log2)” value: -1.21 for the first, ≥ 0.43 for the second.

Going from “HMRQMSEELQSAKEALEDRRTQEKAVLLLMEHRNISNDEAHRLLRKLAMDQGKRLPEVARALVSMAGVL” to “HMRQSKMREAILAAVSAQKLEISDLHVWRIGEQRYAAIIGLATTQAESVSALRDSLAQMDKLVHLTIDQ”, the “soluble fraction (log2)” value falls from -0.203 to -1.16.

First: HMRQTGWVTADSLNVRARPSLQAERVEKVTYGQQVQIMFKQGQWYQIATENGKIGWVSSEYIAAVSP
Second: HMRRELDSEHKRQEILFAAKRLLLAEGYDATSMSRLAKEAGVAPNTLYWYFKDKDELLIAILDELVAE
The “soluble fraction (log2)” value of the first is higher: 0.0725 for the first, -1.09 for the second.

Going from “HMRRGKLGMASRLEQIPGIGPKKRKALLKAFGNSIDAIKSAPVEDLMKVKGINLVLAESIKEL” to “HMRRMTEEQSKLFQGLVSIVQTTLVADMEKGAVTPLLIAEKVDFVADNLYPGKDIDRKEAVAELIRRFSLW”, the “soluble fraction (log2)” value falls from 0.374 to -0.875.

Going from “HMRRSKQERQQAIKTLISNEQIQRQEDLVRKLNEAGWEVTQATISRDITEMQLVKVPLPTGGFAYAVM” to “HMRRSKVMLESILDEIPQMGQARRAALLEQFGSVAALRKASLAEIAMTPGIGEKIAVIIFEYLQKSSH”, the “soluble fraction (log2)” value rises from -0.31 to -0.067.

“HMRRTEKEIEQDVMRAIATIISEKGISSVTIKEVSNLSKTDVIVLERRFKNDEGLIKAYTSQ” and “HMRSFADEGTVEEWIKQAIRENEAAVADYRKGKETAVKFLMGQVMRLSKGEANPADLEDKIKAKLD” are within 0.2 log units of each other in “soluble fraction (log2)” value: 0.0814 for the first, 0.025 for the second.

For “HMRSFGTVAQARGRWKAFYVGPDKRRHTPGVTFSNPIRAQGWLAQELTLIELGQWTPPAQRREKAEVAS”, the “soluble fraction (log2)” value was -0.43.

From the domain aggregation screens of Martell et al. (2025)
